Assay [1] concerns the target IgG. The assay can be described thus: sandwich liposome assay: IgG at 10 nM captured by DNA aptamer on silicon supporter, FcIII peptide liposomes bound, washed, UV-triggered release of pH 8.5 buffer, change of surface potential read (SD 0.62 mV).
Assay [2] has as its target IgG. The assay can be described thus: sandwich liposome assay: IgG at 50 nM captured by DNA aptamer on silicon supporter, FcIII peptide liposomes bound, washed, UV-triggered release of pH 8.5 buffer, change of surface potential read (SD 2.87 mV).

On to FcIII peptide, for which the figures for the surface potential variation with IgG [1] and with IgG [2] were -3.75 mV and -10.6 mV, respectively.

For the origin of these results see US20210396744A1.
